Measurements: the RNAGym collection of RNA variant scans (doi:10.1073/pnas.2313332121)

B1: TPR t1 (parent)
chain: GACCAAUCUGCCCUCAGAGCUCGAGAACAUCUUCGGAUGCAGAGGAGGCAGGCUUCGGUGGCGCGAUAGCGCCAACGUCCUCAACCUCCAAUGCAUCCCACCACAUGAUGAUGCCUGAAGAGCCUUGGUUUUUUG

Variants of: B1
Assay: polymerase ribozyme fitness, log enrichment relative to wild type (log ratio); higher = more active; in vitro selection for triplet polymerase activity
How it was run: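 Only genotypes with ≥10 input reads and ≥1 read per output were kept after Illumina sequencing of input and output libraries. These libraries were PCR-built, transcribed mutants of each subunit of a heterodimeric triplet polymerase ribozyme, each put through one triplicate in vitro selection round with frozen incubation at −7 °C, gel excision of extended constructs, streptavidin-bead capture and RT-PCR. Fitness is a logarithmic ratio of genotype enrichment to wild-type enrichment, from inverse-variance-weighted replicate averages, with the logarithm in base 2.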

Row | Variant | polymerase ribozyme fitness (log ratio)
1 | C8A C89A G122U | -0.485
2 | C8A G47C | -1.8
3 | U7G G93C | -0.742
4 | C8G A50U | -0.104
5 | C8G G48U G61U G93U U112A C124A | -0.568
6 | C8G A37U G44A G60C C115A | -0.0408
7 | U7G G39A G58A G69U C97U | 0.0234
8 | C8G G48U G58C G60U U125G | -0.353
9 | C8G C11G U96A | -0.26
10 | U7G G10U C15A U54A C72G C104A | -2.9
11 | C8G G39U C123U | 1.42
12 | C8G G63C G117C C124A | -1.86
13 | C8A G69C G110C | -4.93
14 | C8G C101G G128U | -3.26
15 | C8G C34A U55A C70G C104G G110A | -7.2
16 | C8A G113C | -1.59
17 | U7G C49A C123U | 0.939
18 | U7G C31U C62U A100C U106A G113A | -4.43
19 | U7G C22U C101A C114A A118U A119U | -5.29
20 | U7G G65A | -4.77
21 | C8A C124G | 1.76
22 | C8G A46G | 0.594
23 | C8G G71A C73A C94U C104U | -1.01
24 | C8A G48U C53A C82U U106A A108G | -1.56

Row | Variant | polymerase ribozyme fitness (log ratio)
25 | C8A A108G | -1.84
26 | C8A G10U U14G C56A C64U U78A C86A C101U | -2.72
27 | U7G A43U G48U G60C C115A U126A | -3.03
28 | C8A G17A U54A G71U C94A | -4.99
29 | U7G C11U A18C G45U C53A | -2.72
30 | C8G A29U U55G C56A C94U C124A | -1.05
31 | U7G G58C U106A G128A | -0.568
32 | C8G A43C A50U C115U G127U | -4.94
33 | C8A G63A A83C C86U | -0.491
34 | U7G G51C C115U | -5.78
35 | C8G C49A U92A C123U | -1.03
36 | U7G C40U A41C G71U G113A | -2.26
37 | C8A U38A G42U G45A | -2.61
38 | C8G G47C C85G | -1.92
39 | C8G A46U G63C | -0.288
40 | C8G C56A U78C G93A C123U | 1.31
41 | C8G C15A G69A C89G | -5.71
42 | C8G C89A A105C | -4.02
43 | U7G A46C C97U G120U G127U | 0.436
44 | C8G A18U G45A C79U A100U A103C C114U | -4.29
45 | C8G C49G A50U C79U U131C | -2.75
46 | C8A U112A C123A | 1.22
47 | U7G G10U C15A C56A G63C C64A C114A A121U C123G | -6.92
48 | U7G G117C G122U | -4.49

Row | Variant | polymerase ribozyme fitness (log ratio)
49 | C8A C12U C114U U116G | -4.98
50 | U7G A66C G71U | -1.24
51 | C8A C12U A90U G117C | -0.863
52 | C8A C53G C56A C70U C97U U112A C124U | -0.44
53 | U7G C15G C49G U112G | -1.33
54 | C8A U33A G42U U112A C123A | -6.39
55 | C8A G52A C98A | -4.9
56 | C8A C97A G120C | -3.2
57 | C8G C15U U54G G117C | 0.947
58 | C8A U54G A105G U112A C123G C124A U132C | -1.56
59 | C8A G120A | 1.88
60 | C8A U9G A16G A24G G39C G60A C64A U92C G110U G113U A121U C123G U126G | -6.69
61 | C8A G48C | -0.457
62 | C8G A18U U21A C73U G93A | -3.79
63 | C8A C20U G60A C98U | -0.889
64 | C8G C56A G77U C88G U92A G113C G122A C123G | -3.34
65 | C8G C20G G44U | -4.75
66 | C8A G93A | -0.248
67 | U7G C49U C80U A111C | -4.73
68 | C8G A41G C53G G93U | -0.406
69 | U7G U132C | 0.108
70 | C8G C11U G120A | 2.17
71 | C8A G35A C89U A95U U106A | -4.65
72 | U7G C13U A84U U96A A121C | 0.875

Row | Variant | polymerase ribozyme fitness (log ratio)
73 | U7G G69U G122A | 0.793
74 | U7G G51C U55C | -2.32
75 | C8G C20U G52U C62A | -2.37
76 | U7G C11G C124U | 1.49
77 | C8A C13G G17C C82U | -4
78 | C8G C12G U55G G61U | 0.571
79 | C8A A74C G93C U116A | -2.46
80 | U7G C12U C15A C22G C62U C80U C86U U96C G113C | -6.05
81 | C8G C70U C80A C94G | -5.61
82 | C8A C72G U133G | 0.138
83 | C8A C40G A84U | -0.858
84 | C8A G39A C79U | 0.0227
85 | C8G A50G G63A U112A G122A | -1.09
86 | U7G G48U C53U A95C G117A | -1.11
87 | C8A C49A G71U C86A G122A | -0.666
88 | C8A G19U G44U C97U | -3.97
89 | C8G C49G C89G | -1.42
90 | C8G C88A | -0.193
91 | C8A A43C C86G C123U U129G | -2.96
92 | C8A C22G G63U U129G | -3.84
93 | U7G A50G U54C G128U | -1.5
94 | C8G A37G G71A | 0.737
95 | U7G G117U | -2.24
96 | C8A C56A C102A A103U | -3.2

Row | Variant | polymerase ribozyme fitness (log ratio)
97 | C8A A26U C115U | -5.1
98 | C8A G110A | -0.267
99 | C8A G110C | -3.59
100 | C8G G48A G120C U125C | 1.03
101 | C8G G58A C70U U96A | -1.13
102 | C8G C79G G117U | -1.37
103 | C8A G35A G61A C89U A95U U106A | -6.13
104 | C8G C15U G19A U125A | -2.55
105 | U7G C114U G127A | -1.17
106 | C8A C12G C64A C123A | -6.53
107 | U7G C22U G42A G47C G60C U87G U92C | -7.02
108 | C8G C13G G36A C72U U78A A111C | 0.397
109 | C8G C12G G44C U96A | -0.546
110 | C8G C79A | -0.929
111 | U7G G69A C101U | -2.81
112 | U7G C101A | -0.172
113 | U7G A46U C82U C102A U112A | -0.759
114 | C8A A27G C56U C62U | -1.49
115 | C8G G71A C82U C101A | -1.2
116 | C8G C89U | -0.514
117 | C8A G17A C72U U126A | -3.12
118 | C8A G10U C73A | -0.361
119 | C8A G19A A50G U54A A103C G120C | -5.02
120 | C8G C20G C34U U112A | -5.8

Row | Variant | polymerase ribozyme fitness (log ratio)
121 | C8A C70U C88U | -0.306
122 | C8A G69C | -1.13
123 | U7G G48C C89A | -2.97
124 | C8G A43U U54C C114A A118G | -4.79
125 | C8A A37C | 0.0805
126 | U7G G10U C79G | -1.66
127 | C8A G58C U112C A121G | 1.27
128 | C8G A24G C124U U126G | -2.55
129 | U7G G17U A27C C53U C56A | -4.57
130 | C8A G48C C49U C62A C94A | -3.22
131 | C8G C62U C99U | -2.93
132 | C8A U9G G39C G69A U78C U92G U106A | -7.09
133 | U7G C20U G60C U133G | -1.91
134 | U7G G63U C88U G93C | -2.75
135 | C8A C12G G39C G63C U78G G117U | -2.3
136 | U7G U78G C80G G135U | -5.8
137 | C8A U112C A121G | 2.38
138 | C8A A91G C98U | -1.37
139 | C8G C13A C85U G135U | -1.16
140 | C8G C124G | 1.92
141 | C8A G36U G69A C88A C115U U131G | -6.31
142 | C8G G122A | 0.556
143 | C8A G47U U78A A83C C98G U112A | -7.02
144 | C8G C12G U55G G61U G71A | -6.64

Row | Variant | polymerase ribozyme fitness (log ratio)
145 | C8G C73G | 0.0346
146 | C8G C73A | 1.91
147 | U7G C15A G58C | -0.977
148 | C8G A18U C73G U126G | -5.64
149 | U7G C8A C56A C124U U129A | -0.245
150 | C8A C101U G117U | -0.423
151 | U7G C11U C49A C56A G107U C114U | -4.37
152 | C8G C20U C49U | -1.11
153 | C8G G35U C123A | -3.92
154 | U7G A18G C62U G120C U125A | -2.15
155 | U7G G110U | -0.723
156 | C8G C13G U54C | 0.758
157 | C8A G117C | -2.07
158 | C8G C97U C102U | -1.4
159 | C8A A46C C56G G127A | -3.01
160 | C8A G45C A50C G57C G93C | -2.56
161 | C8A C12G U14C C73U G77C C101A | -1.62
162 | C8A C114U U126C | -2.4
163 | C8A C22U C53G G61A U106A A118G | -4.47
164 | C8A A50U G52A | -2.23
165 | C8A C22U G57C A75U C97U C102G | -6.66
166 | C8A A50U C89A A90G | -2.46
167 | U7G A46C A68C C70U C97U G120U G127U | -5.43
